Experiments:
[1] = Solution stability of the 90Y-labeled conjugate in ascorbic acid buffer, RCP by HPLC (Method 1); assay type: physicochemical; details: for RCP (radiochemical purity): 0.1 M ascorbic acid buffer pH 5.0
Protocol: The integrity of a radiopharmaceutical is measured by the radiochemical purity (RCP) of the radiolabeled compound using ITLC or more preferably HPLC. The advantage of using HPLC is that radio-impurities caused by radiolytic degradation can be separated from the radiopharmaceutical under optimized chromatographic conditions. […] The radiopharmaceutical compositions of this invention are effective in maintaining the long-term stability of samples that have been frozen, thawed, and re-tested up to 5 days post-labeling.
The initial RCP of a radiopharmaceutical is largely dependent on radiolabeling conditions such as pH, heating temperature and time. Once a radiopharmaceutical is prepared in high yield, the ability of an antioxidant to stabilize a radiopharmaceutical composition is measured by the RCP change over a certain period of time.
The integrity of a radiopharmaceutical is measured by the radiochemical purity (RCP) of the radiolabeled compound using ITLC or more preferably HPLC. The advantage of using HPLC is that radio-impurities caused by radiolytic degradation can be separated from the radiopharmaceutical under optimized chromatographic conditions. […] The radiopharmaceutical compositions of this invention are effective in maintaining the long-term stability of samples that have been frozen, thawed, and re-tested periodically for 5 days.
The initial RCP of a radiopharmaceutical is largely dependent on radiolabeling conditions such as pH, heating temperature and time. Once a radiopharmaceutical is prepared in high yield, the stability of the radiopharmaceutical composition is measured by the RCP change of the radiopharmaceutical over a certain period of time.
Analytical Methods. HPLC method 1 used a HP-1100 HPLC system with a UV/visible detector (Δ=220 nm), an IN-US radio-detector, and a Zorbax C18 column (4.6 mm×250 mm, 80 A pore size). The flow rate was 1 mL/min with the mobile phase starting with 92% solvent A (0.025 M ammonium acetate buffer, pH 6.8) and 8% solvent B (acetonitrile) to 90% solvent A and […] at 18 min, followed by an isocratic wash using 40% of solvent A and 60% solvent B from 19 to 25 min.
(2S)-2-[({2,6-Dimethyl-4-[3-(N-{2-[3-sulfo-2-(3-sulfo-2-{2-[1,4,7,10-tetraaza-4,7,10-tris(carboxymethyl) cyclododecyl]acetylamino}propyl)propyl]ethyl}carbamoyl)-propoxy]phenyl}sulfonyl)amino]-3-({7-[(imidazol-2-ylamino)methyl]-1-methyl-4-oxo(3-hydroquinolyl)}-carbonylamino)propanoic acid trifluoroacetate was prepared as disclosed in U.S. patent application Ser. No. 09/456,300 and was subsequently dissolved in 0.1 M AA buffer (pH 5.0) to give a concentration of 100 μg/mL. The resulting solution was immediately degassed under vacuum for another 1-2 min. To a clean sealed 5 mL vial was added 5.0 mL of 0.1 M ascorbic acid buffer (pH 5.0) containing 500 μg of (2S)-2-[({2,6-Dimethyl-4-[3-(N-{2-[3-sulfo-2-(3-sulfo-2-{2-[1,4,7,10-tetraaza-4,7,10-tris(carboxymethyl) cyclododecyl]acetylamino}propyl) propyl]ethyl}carbamoyl)propoxy]phenyl}sulfonyl)amino]-3-({7-[(imidazol-2-ylamino)methyl]-1-methyl-4-oxo(3-hydroquinolyl)}carbonylamino)propanoic acid trifluoroacetate. The solution was degassed again under vacuum. Upon addition of ˜75 μL of ^90YCl3 solution (101.5 mCi) in 0.05 N HCl, the reaction mixture was heated at 95° C. for 30 min. After cooling to room temperature, a sample of the resulting solution was diluted 50-fold with saline containing sodium gentisate (10 mg/mL), and was then analyzed by HPLC (Method 1, injection volume 5 μL). The resulting mixture was then kept in a dry-ice box (−78° C.) for 5 days. Samples were analyzed at t=0 (RCP=98.5%), 24 h (RCP=98.4%), 68 h (RCP=98.0%), and 120 h (RCP=98.8%). The retention time was 14.8 min.

[2] = Solution stability of the 111In-labeled conjugate in ascorbic acid buffer, RCP by HPLC (Method 3); assay type: physicochemical; details: for RCP (radiochemical purity): 0.1 M ascorbic acid buffer pH 6.0
Protocol: The integrity of a radiopharmaceutical is measured by the radiochemical purity (RCP) of the radiolabeled compound using ITLC or more preferably HPLC. The advantage of using HPLC is that radio-impurities caused by radiolytic degradation can be separated from the radiopharmaceutical under optimized chromatographic conditions. […] The radiopharmaceutical compositions of this invention are effective in maintaining the long-term stability of samples that have been frozen, thawed, and re-tested up to 5 days post-labeling. The initial RCP of a radiopharmaceutical is largely dependent on radiolabeling conditions such as pH, heating temperature and time. Once a radiopharmaceutical is prepared in high yield, the ability of an antioxidant to stabilize a radiopharmaceutical composition is measured by the RCP change over a certain period of time. The integrity of a radiopharmaceutical is measured by the radiochemical purity (RCP) of the radiolabeled compound using ITLC or more preferably HPLC. The advantage of using HPLC is that radio-impurities caused by radiolytic degradation can be separated from the radiopharmaceutical under optimized chromatographic conditions. […] The radiopharmaceutical compositions of this invention are effective in maintaining the long-term stability of samples that have been frozen, thawed, and re-tested periodically for 5 days. The initial RCP of a radiopharmaceutical is largely dependent on radiolabeling conditions such as pH, heating temperature and time. Once a radiopharmaceutical is prepared in high yield, the stability of the radiopharmaceutical composition is measured by the RCP change of the radiopharmaceutical over a certain period of time. HPLC method 3 used a HP-1100 HPLC system with a UV/visible detector (k=220 nm), an IN-US radio-detector, and a Zorbax C18 column (4.6 mm×250 mm, 80 A pore size). […] After cooling to room temperature, a sample of the resulting solution was then analyzed by HPLC (Method 3, injection volume=10 μL). […] Samples were analyzed at t 0 (RCP 98.2%) and 24 h (RCP=97.6%). […]

[3] = 5 mL AA solution containing 100 mg AA, pH=5.0

Substance | RCP while stable over at least 5 days [1, 3] | remains stable (time) [1, 3] | RCP (radiochemical purity) ([1]; 24 h, kept in dry-ice box (-78° C.)) | RCP (radiochemical purity) ([1]; 68 h, kept in dry-ice box (-78° C.)) | RCP (radiochemical purity) ([1]; 120 h, kept in dry-ice box (-78° C.)) | RCP (radiochemical purity) ([1]; t=0, 100 mCi 90Y) | remains stable in solution (time) ([2]; 0.1 M ascorbic acid buffer pH 6.0, room temperature) | RCP (radiochemical purity) ([2]; 24 h, kept at room temperature) | RCP (radiochemical purity) ([2]; t 0, 2.8 mCi 111In)
^90Y-(2S)-2-[({2,6-Dimethyl-4-[3-(N-{2-[3-sulfo-2-(3-sulfo-^2-{^2-[1,4,7,10-tetraaza-4,7,10-tris(carboxymethyl) cyclododecyl]acetylamino}--propyl)propyl]ethyl}carbamoyl)-propoxy]phenyl}sulfonyl)amino]-^3-({^7-[(imidazol-2-ylamino)methyl]-1-methyl-4-oxo(3-hydroquinolyl)}-carbonylamino)propanoic acid trifluoroacetate [Example 2] | > 96% | at least 5 days | 98.4% | 98.0% | 98.8% | 98.5% | – | – | –
^111In-(2S)-2-[({2,6-Dimethyl-4-[3-(N-{2-[3-sulfo-2-(3-sulfo-2-{2-[1,4,7,10-tetraaza-4,7,10-tris(carboxymethyl) cyclododecyl]acetylamino}--propyl)propyl]ethyl}carbamoyl)-propoxy]phenyl}sulfonyl)amino]-3-({7-[(imidazol-2-ylamino)methyl]-1-methyl-4-oxo(3-hydroquinolyl)}-carbonylamino)propanoic acid trifluoroacetate [Example 3] | – | – | – | – | – | – | at least 24 hours | 97.6% | 98.2%

Reference: patent US6713042B2, “Ascorbic acid analogs for metalloradiopharmaceuticals” (Bristol-Myers Squibb Pharma Company, priority 2001, dated 2004)
